Experimental data as given in article PMC11480844.

B1: H2-Kb / B3 (parent)
chain 1: GQQVKQSSPSLTVQEGGISILNCDYENDMFDYFAWYKKYPDNSPTLLISVRSNVDKREDGRLTVFLNKSGKHFSLHITASQPEDTAVYLCAAGNTGYQNFYFGKGTSLTVIP
chain 2: DSGVVQSPRHIIKEKGGRSVLTCIPISGHSNVVWYQQTLGKELKFLIQHYEKVERDKGFLPSRFSVQQFDDYHSEMNMSALELEDSAMYFCASSSLQGARNQAPLFGEGTRLSVL
chain 3: not shown
chain 4: IQKTPQIQVYSRHPPENGKPNILNCYVTQFHPPHIEIQMLKNGKKIPKVEMSDMSFSKDWSFYILAHTEFTPTETDTYACRVKHDSMAEPKTVYWDRDM
chain 5: SIINFEKL
B2: H2-Kb / B14 (parent)
chain 1: GEQVEQRPPHLSVREGDSAVIICTYTDPNSYYFFWYKQEPGAGLQLLMKVFSSTEINEGQGFTVLLNKKDKQLSLNLTAAHPGDSAVYFCAVSARGNMGYKLTFGTGTSLLVDP
chain 2: GGIITQTPKFLIGQEGQKLTLKCQQNFNHDTMYWYRQDSGKGLRLIYYSITENDLQKGDLSEGYDASREKKSSFSLTVTSAQKNEMAVFLCASSMGQGASDYTFGSGTRLLVI
chain 3: not shown
chain 4: B1 chain 4
chain 5: SIINFEKL
B3: H2-Kb / B2 (parent)
chain 1: GEQVEQRPPHLSVREGDSAVIICTYTDPNSYYFFWYKQEPGAGLQLLMKVFSSTEINEGQGFTVLLNKKDKQLSLNLTAAHPGDSAVYFCAVSQMSNYNVLYFGSGTKLTVEP
chain 2: EAAVTQSPRNKVAVTGGKVTLSCNQTNNHNNMYWYRQDTGHGLRLIHYSYGAGSTEKGDIPDGYKASRPSQENFSLILELATPSQTSVYFCASGTGGSGQLYFGEGSKLTVL
chain 3: not shown
chain 4: B1 chain 4
chain 5: SIINFEKL

Variants of: B1
Test: % of reporter cells activated (NFAT-GFP), raw
Conditions: with B3; scale: % of reporter cells activated
Also: test concentration or dose not given here.

Ratio to parent: each site, then its substitutions
chain 5 I2: D 1.57 | S 1.73 | K 0.551 | C 1.29 | Y 0.308 | F 0.945 | P 0.386 | M 0.465 | E 0.706 | N 0.605 | R 0.777 | L 1.35 | G 1.01 | W 0.631 | V 1.39 | A 1.67 | H 0.323 | Q 0.228 | T 2.16
chain 5 E6: S 1.25 | P 1.43 | V 2.28 | M 0.793 | Y 1.97 | G 1.37 | H 0.651 | T 1.87 | L 0.766 | W 2.6 | C 2.48 | A 2.48 | D 1.39 | I 0.819 | R 0.469 | F 2.13 | N 0.831 | K 0.587 | Q 0.961
chain 5 F5: H 0.428 | P 0.228 | S 0.263 | A 0.437 | Y 0.918 | W 0.399 | K 0.121 | V 0.38 | L 0.842 | Q 0.343 | R 0.0406 | G 0.197 | D 0.272 | E 0.207 | T 0.842 | I 0.467 | C 0.411 | M 0.771 | N 0.305
chain 5 S1: C 0.181 | A 0.221
chain 5 N4: H 0.293 | K 0.189 | A 0.143 | F 0.255 | Q 0.0254 | D 0.118 | W 0.176 | C 0.164 | L 0.204 | T 0.137 | E 0.188 | S 0.222 | P 0.196 | Y 0.0862 | M 0.133 | R 0.181 | I 0.183 | V 0.132 | G 0.158
chain 5 K7: E 0.175 | N 0.601 | S 0.219 | V 0.215 | G 0.0497 | Y 0.313 | F 0.28 | H 0.553 | D 0.0872 | C 0.201 | Q 0.201 | L 0.488 | M 0.315 | W 0.634 | P 0.263 | A 0.18 | I 0.37 | R 0.199 | T 0.253
chain 5 L8: R 0.837 | W 0.462 | V 0.793 | C 0.526 | S 0.287 | Y 0.619 | D 0.434 | E 0.448 | I 0.902 | H 0.547 | Q 0.258 | M 0.809 | G 0.264 | T 0.7 | F 0.341 | K 0.331 | N 0.885 | A 0.21 | P 0.463
chain 5 I3: V 0.59 | W 0.28 | N 0.35 | H 0.787 | D 0.144 | M 1.73 | P 1.7 | F 0.216 | R 0.0152 | A 0.585 | G 0.273 | Y 0.153 | C 0.787 | S 1.32 | E 0.956 | Q 0.614 | L 1.21 | T 0.509 | K 0.322

Variants of: B2
Test: % of reporter cells activated (NFAT-GFP), raw
Conditions: with B14; scale: % of reporter cells activated

Ratio to parent: each site, then its substitutions
chain 5 E6: K 0.707 | D 0.618 | Q 0.876 | N 1.07 | R 0.373 | T 1.41 | C 1.16 | H 0.853 | W 1.2 | S 0.751 | P 0.867 | V 1.69 | A 0.418 | I 0.729 | M 0.822 | G 1.08 | L 0.622 | Y 0.853 | F 1.47
chain 5 I3: C 1.96 | F 1 | Q 1.69 | K 1.34 | G 1.38 | T 1.47 | V 1.6 | Y 1.28 | A 1.33 | N 0.978 | E 1.28 | M 0.84 | S 1.6 | P 2 | H 1.78 | D 1.46 | W 1.11 | L 1.33 | R 0.858
chain 5 N4: H 0.911 | W 1.01 | L 0.822 | C 0.916 | M 0.498 | T 1.64 | R 1.32 | S 1.1 | K 1.37 | Q 1.07 | D 1.23 | I 0.484 | F 1.51 | A 1.32 | E 1.33 | P 1.38 | Y 0.658 | G 0.644 | V 1.42
chain 5 S1: K 0.564 | N 0.231 | R 2.04 | M 0.444 | H 1.24 | F 3.07 | L 1.13 | E 0.867 | D 1.38 | Y 1.33 | P 0.751 | G 0.596 | C 1.42 | T 1.42 | I 0.76 | A 0.942 | Q 0.858 | V 8.49 | W 1.04
chain 5 I2: G 0.907 | C 0.933 | N 1 | L 1.73 | V 0.52 | S 1.08 | W 0.933 | Y 0.88 | E 0.964 | T 1.16 | A 0.778 | D 1.47 | Q 1.07 | F 0.849 | M 1.4 | R 1.87 | H 0.667 | P 2.36 | K 1.04
chain 5 F5: N 1.1 | S 1.56 | M 0.893 | L 1.11 | Q 0.582 | A 1.33 | D 1.32 | K 0.636 | H 0.96 | R 1.33 | W 0.724 | C 1.96 | I 0.831 | G 1.07 | V 1.17 | Y 0.578 | E 1.08 | P 0.791 | T 0.609
chain 5 L8: G 1.38 | T 1.38 | W 1.11 | M 0.773 | N 1.16 | S 0.716 | D 1.24 | E 0.516 | F 0.44 | I 1.51 | P 1.33 | H 2.84 | Q 1.24 | R 0.978 | V 0 | K 1.24 | Y 1.07 | A 0.609 | C 1.41
chain 5 K7: R 0.667 | E 0.622 | T 1.73 | F 1.42 | A 0.907 | I 0.96 | W 1.26 | P 1.64 | Y 1.69 | M 0.787 | G 0.489 | N 0.707 | Q 1.23 | C 4.53 | H 0.796 | L 1.56 | V 1.11 | S 1.09 | D 0.791

Variants of: B3
Test: % of reporter cells activated (NFAT-GFP), raw
Conditions: with B2; scale: % of reporter cells activated

Ratio to parent, by site and new letter:
chain 5 L8: P 3.65 | W 2.09 | R 0.773 | Q 2.52 | T 1.29 | Y 1.03 | V 0.211 | N 0.897 | S 1.08
chain 5 S1: P 6.59 | G 4.72 | C 0.773 | N 0.465 | I 10.3 | L 7.3 | V 8.24 | K 2.57 | A 3.1 | D 2.9 | W 8.98 | F 4.16 | H 1.74 | R 5.53 | E 0.768 | M 5.85 | Y 6.51 | Q 1.77 | T 1.02
chain 5 N4: M 0.535 | H 0.584 | C 0.162 | S 0.422 | K 0.362 | R 0.324 | I 0.557 | Y 0.481 | T 0.373 | F 0.557 | E 0.416 | G 0.335 | V 0.281 | W 0.449 | L 0.503 | A 0.432 | P 0.503 | Q 0.259 | D 0.541
